Key:
[O-][Cl+3]([O-])([O-])O = purified protein; format: biochemical, Campylobacter jejuni; details: reduced methyl viologen, 50 mM HEPES pH 7, room temperature, argon glove box, 67 nM enzyme, corrected for background oxidation
[O-][Cl+2]([O-])O = purified protein; format: biochemical, Campylobacter jejuni; details: reduced methyl viologen, 50 mM HEPES pH 7, room temperature, argon glove box, 67 nM enzyme
CjNapA (WT NapA) [1] = target: T1, CjNapA (WT NapA) (Campylobacter jejuni, UniProt Q9PPD9); test: steady-state nitrate reductase assay, reduced methyl viologen oxidation, double-reciprocal plot; format: biochemical
T1 construct: recombinant catalytic subunit NapA without NapB; native N-terminal TAT signal peptide replaced by that of E. coli; 889 residues modelled by cryo-EM
T1 sequence (Q9PPD9 31-924): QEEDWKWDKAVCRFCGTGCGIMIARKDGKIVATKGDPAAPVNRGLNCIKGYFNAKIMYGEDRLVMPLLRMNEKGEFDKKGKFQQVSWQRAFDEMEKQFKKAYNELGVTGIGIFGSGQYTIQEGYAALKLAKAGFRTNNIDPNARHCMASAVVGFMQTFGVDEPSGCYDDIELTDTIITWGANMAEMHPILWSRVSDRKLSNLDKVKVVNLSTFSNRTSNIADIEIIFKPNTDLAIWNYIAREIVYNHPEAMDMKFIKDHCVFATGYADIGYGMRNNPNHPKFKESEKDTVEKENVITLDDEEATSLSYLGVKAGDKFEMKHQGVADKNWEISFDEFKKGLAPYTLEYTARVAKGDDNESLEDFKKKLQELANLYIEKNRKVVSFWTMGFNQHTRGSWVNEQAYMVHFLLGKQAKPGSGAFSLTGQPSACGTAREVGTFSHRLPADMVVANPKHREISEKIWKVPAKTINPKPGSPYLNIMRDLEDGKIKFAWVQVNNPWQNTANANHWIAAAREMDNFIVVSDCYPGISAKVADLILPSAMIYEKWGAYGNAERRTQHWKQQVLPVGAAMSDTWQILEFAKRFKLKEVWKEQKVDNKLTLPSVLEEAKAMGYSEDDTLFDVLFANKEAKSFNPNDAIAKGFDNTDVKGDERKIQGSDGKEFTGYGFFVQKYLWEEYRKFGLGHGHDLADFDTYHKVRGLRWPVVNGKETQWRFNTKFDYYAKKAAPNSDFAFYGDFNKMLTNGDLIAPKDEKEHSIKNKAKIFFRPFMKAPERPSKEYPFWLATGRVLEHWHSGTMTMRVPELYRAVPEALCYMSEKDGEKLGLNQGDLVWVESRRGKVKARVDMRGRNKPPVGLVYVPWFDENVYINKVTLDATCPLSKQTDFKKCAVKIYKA

CjNapA (WT NapA) [2] = target: T1, CjNapA (WT NapA); test: cryo-EM structure, […] Å; format: binding; details: coordinated by Cys42, Cys45, Cys49, Cys77

CjNapA (WT NapA) (Campylobacter jejuni subsp. jejuni NCTC 11168 = ATCC 700819)
Km ([O-][Cl+3]([O-])([O-])O): 22.907 ± 3.132 mM | kcat ([O-][Cl+3]([O-])([O-])O): 2.52 ± 0.07 s⁻¹ | kcat/Km ([O-][Cl+3]([O-])([O-])O): 100 M⁻¹ s⁻¹ | Km ([O-][Cl+2]([O-])O): 0.968 ± 0.093 mM | kcat ([O-][Cl+2]([O-])O): 2.13 ± 0.04 s⁻¹ | kcat/Km ([O-][Cl+2]([O-])O): 2200 M⁻¹ s⁻¹

[O-][Cl+3]([O-])([O-])O [perchlorate]
Ki (CjNapA (WT NapA) [1]): 4.7 ± 0.3 mM

[S]12[Fe]3[S]4[Fe]1[S]1[Fe]2[S]3[Fe]41 [[4Fe4S] cluster]
cryo-EM structure, 3.04 Å (CjNapA (WT NapA) [2]): NapA has a [4Fe4S] cluster, which is located closer to the surface of the protein

Source: publication PMC12769810, “Structure and substrate promiscuity of Campylobacter jejuni periplasmic nitrate reductase (Nap) and phylogenetic analysis of Nap homologs” (The Journal of Biological Chemistry, 2025)
